How the values were obtained:
Test in all cases: pull-down binding Z-score (relative to library population); higher = stronger binding
[1] = system: TO-N3-2 (biotin conjugate); conditions: RNA library: Library-2
In short: (§1)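 The RNA library, end-labelled with Cy5 or Cy3, was heat-folded in phosphate/NaCl/KCl buffer, and 1 μg was incubated at 25 °C for 60 min with streptavidin beads carrying 100 pmol of biotin-conjugated small molecule. Hot SDS released the bound RNA, which was then hybridised to a DNA barcode microarray for 20 h at 55.5 °C. For scoring binding, signal from beads alone was subtracted, replicate barcoded probes were averaged after discarding the highest and lowest, and each value was turned into a Z-score from the library mean and standard deviation.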

[2] = system: TO-N3 (biotin conjugate); conditions: RNA library: Library-2
In short: as §1

[3] = system: TO-3-N3 (biotin conjugate); conditions: RNA library: Library-2
In short: as §1

[4] = system: G-clamp-N3 (biotin conjugate); conditions: RNA library: Library-1 (pre-miRNA loops + repeats)
In short: as §1

[5] = system: TO-3-N3-2 (biotin conjugate); conditions: RNA library: Library-2
In short: as §1

Sequence	pull-down binding Z-score [1]	pull-down binding Z-score [2]	pull-down binding Z-score [3]	pull-down binding Z-score [4]	pull-down binding Z-score [5]
GGUGGGGGCUCUGAGUGGGGAAAGUGGGGGCCUAGGGGAGGUCACAGU [hsa-mir-4259]	2.4	4.21	4.45	0.943	3.57
GGUGGGUGCC [hsa-mir-1268b]	-0.075	-0.332	-0.142	-0.587	-0.32
GGUGGGUGGGAAGUAAGAUCUGACCUGGACUCCAUCCCACCCACC [hsa-mir-4640]	4.38	5.35	4.87	0.122	4.64
GGUGGUUGUGGGAGUCACU [hsa-mir-4418]	1.93	2.18	1.58	-0.575	1.89
GGUGUCAUGCCCCAAGAUAACC [hsa-mir-634]	0.0681	-0.387	-0.514	-0.532	-0.28
GGUGUCGAACUCAUGGCUGCCACC [hsa-mir-6782]	0.629	-0.065	-0.346	0.197	-0.167
GGUUCAAGUUUGGCUCCAUCUUUAUGAAA [hsa-mir-4506]	0.415	0.0775	-0.0094	-0.636	0.109
GGUUCCCACGCCGCGGCAACC [hsa-mir-6776]	0.293	0.217	0.0159	-1.36	-0.135
GGUUCUCAGUCAGAACC [hsa-mir-6813]	-1.21	-0.372	-0.0211	0.755	-0.346
GGUUCUGGGGUGUAGACGCUGCUGGCCAGCC [hsa-mir-4707]	0.971	0.587	0.287	1.08	0.282
GGUUCUUCCCGAAGC [hsa-mir-4710]	-0.359	0.0409	-0.0117	0.205	-0.22
GGUUGCUGGAGGUCAGC [hsa-mir-6871]	0.785	0.489	0.155	0.0274	0.233
GGUUGGCCGCUGACCCCCGCGGGGCCCCCGGCGGCC [hsa-mir-3195]	0.847	0.0623	-0.103	0.0226	-0.293
GGUUGGGGUGGGCUGCCUGUGGACCAAUC [hsa-mir-4525]	1.94	2.44	2.14	0.722	1.06
GGUUGUUAGAUAGACAACU [hsa-mir-4510]	-0.496	0.328	0.632	0.718	0.19
GGUUGUUUAAUUAGGAACCAACU [hsa-mir-190b]	-0.593	-0.293	-0.247	-0.019	0.0266
GGUUUCCUUCGGGGCAGGUGGGGACUGCUCCUUUGGGAGGAAGGAGGAGGCC [hsa-mir-4453]	2.11	2.34	2.21	1.28	1.96
GGUUUCGGGCUGCC [hsa-mir-661]	0.74	0.249	0.148	0.142	0.067
GGUUUCUUAAAAUGGAAUCU [hsa-mir-1255b-1]	-0.251	-0.413	-0.382	0.385	0.0245

Sequence	pull-down binding Z-score [1]	pull-down binding Z-score [2]	pull-down binding Z-score [3]	pull-down binding Z-score [4]	pull-down binding Z-score [5]
GGUUUGCGCCUCAAGAAACC [hsa-mir-1255b-2]	0.521	-0.0954	-0.187	0.436	-0.306
GGUUUUGCCAUCAUGCCAAAAGCU [hsa-mir-548v]	0.259	0.277	0.00688	-0.76	-0.0997
GGUUUUUACCAUUAAAACC [hsa-mir-548aw]	-1.44	-1.01	-0.656	-0.37	-0.448
GUAAGAGAGACUCUCGCUUCCUGC [hsa-mir-874]	0.462	0.169	0.0696	-1	-0.291
GUAGAUUGAAAGCCCUAAUUUUAC [hsa-mir-3941]	0.452	-0.0427	-0.486	-0.805	0.306
GUAGAUUUUAUGUCAC [hsa-mir-892b]	0.0365	-0.00927	-0.000191	-0.748	-0.156
GUAUACUGAGCUUAUGUAUGCAUCUGCAUAC [hsa-mir-5591]	0.0714	0.39	0.357	0.344	0.0113
GUAUGAGUGCCACAGAGCCGUCAUAA [hsa-mir-9-3]	1.73	1.39	0.938	-0.99	-0.231
GUAUGAGUGGUGUGGAGUCUUCAUAA [hsa-mir-9-1]	0.298	0.292	0.179	-0.511	-0.08
GUAUGAGUGUAUUGGUCUUCAUAA [hsa-mir-9-2]	0.481	0.0907	-0.226	-0.373	0.203
GUCACAAAUUCAAAUAAAGUGAG [hsa-mir-4693]	0.598	1.03	1.05	-1.04	0.544
GUCACCAGCCCUCAUGUACUUGUGAC [hsa-mir-6820]	-0.281	0.222	0.335	-1.09	-0.289
GUCACUGUCUCAAAUCAGUGAC [hsa-mir-549a]	-1.33	-0.129	0.183	-0.711	-0.427
GUCAGGAGUGGCUUUCCUGAC [hsa-mir-4462]	-0.397	0.279	0.414	-0.232	-0.271
GUCAGGUGAUGGUGAUAAGGUCAAGGCCUG [hsa-mir-6853]	1.03	0.388	-0.0611	0.547	-0.0266
GUCAGUCCCAAUCUGAAUCCCACCAAAAUAGGUGGUAGAGGGUUGC [hsa-mir-4290]	0.752	0.0867	-0.204	-1.14	0.249
GUCAUUACUUUCAAUAGC [hsa-mir-548p]	-0.372	-0.684	-0.59	0.0268	-0.254
GUCAUUUCCCAUCACUAAUGGC [hsa-mir-6815]	-0.881	-0.873	-0.674	-0.92	-0.336
